Source: the supplement of paper PMC9732359
± gives the uncertainty stated by the source.

Assay: protein stability index of a GFP-peptide fusion (yeast GPS) (PSI 1-4); higher = more stable; sorted into four equal gates, so the index is relative within each strain
How it was run: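 Plasmids isolated from each sorting gate were PCR-amplified and Illumina-sequenced, and barcodes assigned the reads to strains. The gates, four of equal size, were set by GFP/Cherry fluorescence ratio on mid-log cultures in leucine-free medium. These cultures were yeast carrying a pooled library of tiled 17-residue yeast protein peptides fused downstream of GFP on a plasmid that also expresses Cherry. The protein stability index is the sum of every gate's read frequency times its gate number.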

Sequence	protein stability index (doa10∆)	protein stability index (pdr5∆)	protein stability index (san1∆)	protein stability index (ubr1∆)
IDSTDHIRKASSKKSKR [LRP1]	2.15 ± 0.046	1.99 ± 0.039	1.83 ± 0.058	2.14 ± 0.038
DQVVVRGIDTLQKKVAS [RPB3]	2.39 ± 0.28	3.29 ± 0.19	2.68 ± 0.28	
QNDELTMGMRALLKLSV [DIS3]	2.01 ± 0.094	2.49 ± 0.078	1.55 ± 0.067	2.7 ± 0.066
NGEEDEVALFSQKAKLM [YLR335W/NUP2]	1.16 ± 0.17	1.16 ± 0.13		1.17 ± 0.094
GEVVYLRKQKDSSTTSS [ITC1]	1.79 ± 0.073	1.73 ± 0.08	1.48 ± 0.14	2.23 ± 0.081
LGRDYPIEVDEELLQLF [IRR1]	2.19 ± 0.24	1.99 ± 0.24		1.81 ± 0.24
MVEWLESRSFSPIPFPP [PRP8]	2.52 ± 0.13	2.83 ± 0.17	3.17 ± 0.13	2.9 ± 0.11
AELKLAGEFGLKNKREI [RPS9B]	3.08 ± 0.11	3.21 ± 0.15	3.2 ± 0.18	3.21 ± 0.12
TIPILESDSKATLQSNE [DSN1]	2.8 ± 0.12	2.16 ± 0.11	2.36 ± 0.16	2.67 ± 0.081
VLGTPDQKIWPYLEKYP [SSN3]	2.42 ± 0.077	1.72 ± 0.053	2.3 ± 0.068	2.13 ± 0.059
HHRIFDSSAHFKGALTI [YMR129W/POM152]	2.56 ± 0.073	2.73 ± 0.084	2.44 ± 0.14	2.62 ± 0.053
IERYPLKVTKKHGAKKV [RPL27A]	3.37 ± 0.092	3.6 ± 0.14	3.54 ± 0.087	3.23 ± 0.1
IEHNLRVISEYYSRITL [RPN5]	2.63 ± 0.087	2.54 ± 0.078	2.41 ± 0.063	2.46 ± 0.073
LSSYQKKIIKCDEHMGL [PRE5]	2.19 ± 0.1	2.37 ± 0.13	2.19 ± 0.21	2.71 ± 0.22
SEKQNDEEAAGASTVMK [PRP8]	3.36 ± 0.15	3.18 ± 0.093	3.38 ± 0.11	3.43 ± 0.11
IQRETLLPTNNGQPLNQ [GRR1]	2.53 ± 0.072	2.91 ± 0.071	2.64 ± 0.06	2.65 ± 0.057
MDSIIPAGVKLDDLQVI [PGD1]	2.5 ± 0.093	3.05 ± 0.091	2.57 ± 0.061	2.52 ± 0.056
GTGNNNKLNFIVDDKQE [DIB1]	1.42 ± 0.073	1.36 ± 0.047	1.57 ± 0.17	1.61 ± 0.058
ADLRPLQIKSIREIDVT [RPS7B]		2.72 ± 0.26	2.53 ± 0.23	2.88 ± 0.1
MVATVKRTIRIKTQQHI [TAF14]	1.62 ± 0.09	1.95 ± 0.053	1.53 ± 0.14	1.56 ± 0.09
VLADALNAINNAEKTGK [RPS22A]	2.92 ± 0.056	3.27 ± 0.059	2.67 ± 0.06	2.97 ± 0.049
SLRRQVKKLEIQQHARY [RPL43A]	2.75 ± 0.11	2.89 ± 0.1	2.96 ± 0.077	3.29 ± 0.09
ANNGAAFSPLTTTRIQS [MED2]	2.67 ± 0.081	2.91 ± 0.06	2.65 ± 0.066	2.66 ± 0.044
ANGGSTIISPHKDIPEE [DSN1]	3.44 ± 0.21	3.44 ± 0.16	3.57 ± 0.079	2.88 ± 0.28
MTNLTYFLHLSVFNAEL [YCS4]	1.62 ± 0.061	1.48 ± 0.047	1.87 ± 0.09	1.76 ± 0.073
NKGELETQPGCNEEQTL [RPO31]	3.21 ± 0.16	3.38 ± 0.12	3.21 ± 0.2	3.2 ± 0.082

Sequence	protein stability index (doa10∆)	protein stability index (pdr5∆)	protein stability index (san1∆)	protein stability index (ubr1∆)
TDANGKTIVTGGNGPED [RPO26]	3.62 ± 0.21	3.28 ± 0.099	3.48 ± 0.12	3.37 ± 0.057
NYTDLIWFPEDFISPEL [MED1]	2.56 ± 0.058	2.61 ± 0.058	2.82 ± 0.067	2.56 ± 0.032
TDDSFEDKVFASKGRTK [BRN1]		2.74 ± 0.099	2.93 ± 0.13	2.29 ± 0.18
VTEANIIKLVEGLANDP [RPS12]	2.51 ± 0.12	2.76 ± 0.073	2.67 ± 0.085	2.73 ± 0.073
PDNSIFGDTKSESKQLG [SWI3]	3.54 ± 0.14	3.23 ± 0.091	3.21 ± 0.076	3.37 ± 0.052
EDEDDGESEKSSDVDMD [RPC53]	3.28 ± 0.11	3.66 ± 0.14	3.29 ± 0.19	3.32 ± 0.094
VPIERVAQLKPFFKYID [RPC37]	2.54 ± 0.062	2.24 ± 0.054	2.34 ± 0.054	2.71 ± 0.052
GSSNKAVVQTVKGLLNT [YJL039C/NUP192]	3.27 ± 0.14	3.13 ± 0.11	2.59 ± 0.11	3.07 ± 0.098
MGKSAVIFVERATPATL [SRB2]	2.36 ± 0.14	1.31 ± 0.076	1.66 ± 0.2	1.31 ± 0.29
KSVEKTMIKKTTLVTRR [SMC3]	3.17 ± 0.23	3.19 ± 0.12	2.91 ± 0.066	3.4 ± 0.2
NVKVIMATNRADTLDPA [RPT3]	2.67 ± 0.1	2.07 ± 0.086	1.94 ± 0.22	2.44 ± 0.057
RVNLSENTPEPDLPALE [SMC4]	2.26 ± 0.091	2.32 ± 0.074	3.1 ± 0.086	2.83 ± 0.11
KDNAIYNGFIDIFSNLS [YCS4]	2.85 ± 0.076	2.72 ± 0.081	2.87 ± 0.07	2.77 ± 0.047
SNDPDVNNTRRRVYNRV [BRN1]	2.81 ± 0.14	3.52 ± 0.19	3 ± 0.14	3.69 ± 0.24
AIMNCADNSGARNLYII [RPL23A]	2.33 ± 0.089	3.14 ± 0.17	2.52 ± 0.14	3.1 ± 0.17
HVNKRKRVSGTSQHSDS [YOR098C/NUP1]	1.93 ± 0.077	2.31 ± 0.11	2.22 ± 0.1	1.64 ± 0.076
NSIWGSSLRKNASGNKR [ITC1]	1.6 ± 0.062	2.12 ± 0.097	2.5 ± 0.11	1.86 ± 0.044
EYMKRHPTTIESLREIP [SEC65]	3.25 ± 0.082	3.21 ± 0.068	3.17 ± 0.059	3.06 ± 0.06
IYDSEDPQQVFDERIKF [RPN3]	3.05 ± 0.11	3.09 ± 0.089	3.23 ± 0.08	2.89 ± 0.06
VIAHLTVEALDFREKAL [RET1]	2.79 ± 0.11	2 ± 0.058	2.12 ± 0.1	2.57 ± 0.062
IQIMANIDQEGSKQADR [PGD1]	3.2 ± 0.052	3.11 ± 0.064	3.08 ± 0.054	3.08 ± 0.04
DALRRGMLAMASLHSKE [MED4]	1.87 ± 0.15	2.23 ± 0.15	2.24 ± 0.17	2.05 ± 0.17
ILLRYHHNDISNDSQSH [YCG1]	1.65 ± 0.15	1.28 ± 0.13	1.96 ± 0.2	1.51 ± 0.081
EIKNDFIMVKGCIPGNR [RPL3]	1.1 ± 0.14	1.66 ± 0.08	1.48 ± 0.16	1.45 ± 0.11
LGSKKELGISLEHPYGK [SNU114]	3.08 ± 0.11	2.99 ± 0.13	3.1 ± 0.15	3.28 ± 0.088
EISPQDSIASVLSPDSN [GAL11]	1.99 ± 0.064	2.34 ± 0.062	2.98 ± 0.087	2.64 ± 0.055
